Here are results for 2 molecules from patent US20140295012A1, “LATENT HUMAN IMMUNODEFICIENCY VIRUS REACTIVATION” (priority 2011, published 2014).

What all share (assay type): cell-based
Data set [1] deals with latently HIV-1 infected primary T cells. In words: Reactivation of latent HIV-1 infection in primary T cells (GFP). Particulars: 24 hours. As for the experimental part: Latently HIV-1 infected primary T cells were treated for 24 hours with aclacinomycin (ACM) or dactinomycin (ActD), or with the anti-CD3 monoclonal antibody (mAb) OKT3. Reactivation levels were determined as a percentage of GFP-positive cells 24 hours after stimulation. Viability of the cells correlates with the size of the symbol.
To determine if aclacinomycin or dactinomycin were capable of reactivating a latent HIV-1 infection in primary T cells, latently HIV-1 infected primary T cells were treated with aclacinomycin or dactinomycin or with the anti-CD3 monoclonal antibody OKT3 for 24 hours. Reactivation of the latent HIV-1 infection was observed by increasing levels of GFP fluorescence.

Data set [2] has as its system latently HIV-1 infected monocytic THP89GFP cells. In words: HIV-1 reactivation in latently infected monocytic THP89GFP cells.
Data set [3] deals with HIV-1 replication in PBMCs. In words: HIV-1 replication in PBMCs infected with GFP reporter virus. Particulars: saturating HRF levels, 5 days post infection. How it is done:
FIGS. 8A-8C show HRF induced NF-κB and cytokine expression in peripheral blood mononuclear cells (PBMCs). […] PBMCs were activated with optimal concentrations of either PHA-L or with HRF. Cells were harvested at the indicated time points. Nuclear extracts were generated and NF-κB p50 activity and NF-κB p65 activity were determined using the TransAM™ NF-κB family ELISA kit (Active Motif). […] PBMCs from four different healthy donors were stimulated with an anti-CD3/CD28 antibody combination and infected with a GFP reporter virus on day 4 post-stimulation. HIV-1 replication was monitored in the absence (C) or presence of HRF for 5 days and the achieved HIV-1 infection levels were determined by flow cytometric analysis for the percentage of EGFP-positive cells. All infections were normalized to the infection level in the untreated culture and the histogram represents the mean infection levels obtained in 4 donor cultures±standard deviation. […] PBMCs from four healthy donors were left unstimulated (C) or stimulated with an anti-CD3/CD28 antibody combination as a positive control or were stimulated with a concentration of HRF that would trigger maximum HIV-1 reactivation in CA5 T cells. Culture supernatants were collected after 24 hours and the concentrations of a panel of cytokines was determined by BioPlex analysis. […]

Data set [4] deals with latently HIV-1 infected reporter T cell lines. As for the experimental part:
FIGS. 1A and 1B show culture supernatants from Massilia timonae reactivate latent HIV-1 infection. […] Untreated control cells and HRF-treated cells were subjected to flow cytometric analysis to determine enhanced green fluorescent protein (EGFP) expression as a direct and quantitative marker of HIV-1 expression 24 hours post stimulation. FSC/SSC dot plots are represented to evaluate cell viability as a function of changes in the FSC (cell size)-SSC (granularity) phenotype of the cells. FIG. 1B is a histogram showing the reproducibility of the observed HIV-1 reactivation. Three independent preparations of HRF (batches HRF1-3) on four different latently infected T cell lines (5F3, 8E12, CA5 and 12D4) were tested. The percentage of EGFP positive cells following stimulation is depicted in the histogram. Cell culture supernatants of Pseudomonas aeruginosa cultures, grown under similar conditions, were used as specificity controls.
Infection levels in the cell cultures were monitored by flow cytometric analysis of EGFP expression. Flow cytometric analysis was performed on a GUAVA EasyCyte (Millipore; Billerica, Mass.), or a LSRII (Becton & Dickinson; Franklin Lakes, N.J.).

*1 amine or outer side, *2 acyl side, *3 side chain or, on linkers, in order; H or OH if unused. Where a SMILES comes first, the peptide text is derived from it. Bridges are numbered along the chain shown (N, C = ends). Roman numbers before positions name the chains, in order. [ ]: non-standard residue; d: D form. Actinocin(9to1) = Cc1c2oc3c(C)ccc(C(=O)[*:1])c3nc-2c(C(=O)[*:2])c(N)c1=O; NMeV = CN[C@H](C(=O)O)C(C)C; Sar = CNCC(=O)O

With `Cc1c2oc3c(C)ccc(C(=O)N[C@@H]4C(=O)N[C@H](C(C)C)C(=O)N5CCC[C@H]5C(=O)N(C)CC(=O)N(C)[C@@H](C(C)C)C(=O)O[C@@H]4C)c3nc-2c(C(=O)N[C@@H]2C(=O)N[C@H](C(C)C)C(=O)N3CCC[C@H]3C(=O)N(C)CC(=O)N(C)[C@@H](C(C)C)C(=O)O[C@@H]2C)c(N)c1=O` [dactinomycin] (I: T[dV]P[Sar][NMeV] / II: T[dV]P[Sar][NMeV]; ester I:1-I:C, II:1-II:C; linker I:N-II:N via Actinocin(9to1)), in data set [1], the “reactivation of latent HIV-1 infection” value is reported as “capable of reactivating latent HIV-1 infections”.

B1: HRF: flagellin polypeptide from Massilia timonae (SEQ ID NO:10), used as bacterial culture supernatant (protein)
chain: MASVINTNVPSLNSQRNLSTSQAQLNTSIQRLSSGMRINSAKDDAAGLAISDRMNSQIKGMTQATRNANDGVSMAQTAEGALSSSGDILQRIRELAVQSSNSSNSASDRKALQTEVTQLSSELNRIANTTEFNGQKLMDGTLGTANFQVGANAGQLISMTGANFNTSVYGNNQIAGDAAKAAATTSAAATGAFTISGYLGTSAAINTTDADTAKTIAASINNVTGDTGVTATARTDSFLKSAGGAHTMSLASDNSGTGEAVDISFTVGDGGDTADDYAAAISAFNAQTAKTGVTAEYDAVEKGLKLTNSAGENISLTNKAGSADIDMDTYAADGALMASALTLEAGDVGVANGRVTMDSEKSFSVAEGTDTGFELADSSALKSVAKIDISDFEGAQEAIKVADAALSAVNSQRAEYGALQSRFESAISNLSSSTENLSASRSRIVDTDFAAETAKMTRGQILQQAGTSMLAQANSLPNGVLSLLRG
For B1, the HIV-1 reactivation result in data set [2] is recorded as “reactivated latent HIV-1 infection”; in data set [4] (four latently infected reporter T cell lines, culture supernatant), “efficiently reactivate latent HIV-1 infection”. Moreover, the HIV-1 replication result in data set [3] is recorded as “not significantly increased”. The “cell viability (flow cytometric FSC/SSC analysis)” value in data set [4] (culture supernatant on latently infected reporter T cell lines) is given as “No effect on cell viability”.
